From PMC8248988, “A signal capture and proofreading mechanism for the KDEL-receptor explains selectivity and dynamic range in ER retrieval” (eLife, 2021) come the findings set out here.

Ends that are not written are not given here.

Assay [1] has as its target T1, TAERDEL retrieval signal peptide.
T1 chain: TAERDEL
As to the kind of experiment: peptide binding assay.

Assay [2] has as its target T2, TAEDDEL retrieval signal peptide.
T2 chain: TAEDDEL
The assay is described as follows: peptide binding assay.

For assay [3], the target named is T3, TAEHDEL retrieval signal peptide.
T3 chain: TAEHDEL
As to the kind of experiment: [3H]-peptide filter binding assay.

Assay [4] concerns the target T4, TAEKDEL retrieval signal peptide (BiP) (Homo sapiens).
T4 chain: TAEKDEL
As to the kind of experiment: [3H]-peptide filter binding assay.

In assay [5] the target is T3, TAEHDEL retrieval signal peptide. The assay is described as follows: competition binding with [3H]-TAEHDEL.
Assay [6] has as its target T5, TAEHDEL-CONH retrieval signal peptide.
T5 chain: TAEHDEL-NH2
The assay is described as follows: competition binding with [3H]-TAEHDEL.

For assay [7], the target named is T3, TAEHDEL retrieval signal peptide. The assay is described as follows: [3H]-peptide filter binding assay, pH 5.4.
For assay [8], the target named is T4, TAEKDEL retrieval signal peptide (BiP). The assay is described as follows: [3H]-peptide filter binding assay, pH 5.4.

B1: KDEL receptor 2 (protein)
chain: MNIFRLTGDLSHLAAIIILLLKIWKSRSCAGISGKSQLLFALVFTTRYLDLFTSFISLYNTSMKLIYIACSYATVYLIYMKFKATYDGNHDTFRVEFLIVPVGGLSFLVNHDFSPLEILWTFSIYLESVAILPQLFMISKTGEAETITTHYLFFLGLYRALYLVNWIWRYYFEGFFDLIAVVAGVVQTVLYCDFFYLYVTKVLKGKKLSLPA
The Kd is the free concentration of one partner at which half of the binding sites on the other are occupied at equilibrium, for simple one-to-one binding. For orientation: IC50 means the concentration needed to halve the response being measured. As to B1, the Kd is 2.71 µM in assay [1]; 14.9 µM in assay [2]; 0.24 µM in assay [3]; 1.94 µM in assay [4]; 0.26 µM in assay [7]; 1.9 µM in assay [8]. Moreover, the IC50 in assay [5] worked out at 19 µM; in assay [6], 1700 µM.
